# What was measured:
# [1] = target: T1, FXR1 (GST-FXR1) (Homo sapiens, UniProt P51114 1-621); test: EMSA
# [2] = target: HuR (GST-HuR) (UniProt Q15717 1-326); test: EMSA
# [3] = target: T1, FXR1 (GST-FXR1); test: EMSA; remark: listed apart in the source
# [4] = target: T1, FXR1 (GST-FXR1); test: competition EMSA
# T1 sequence (P51114 whole entry): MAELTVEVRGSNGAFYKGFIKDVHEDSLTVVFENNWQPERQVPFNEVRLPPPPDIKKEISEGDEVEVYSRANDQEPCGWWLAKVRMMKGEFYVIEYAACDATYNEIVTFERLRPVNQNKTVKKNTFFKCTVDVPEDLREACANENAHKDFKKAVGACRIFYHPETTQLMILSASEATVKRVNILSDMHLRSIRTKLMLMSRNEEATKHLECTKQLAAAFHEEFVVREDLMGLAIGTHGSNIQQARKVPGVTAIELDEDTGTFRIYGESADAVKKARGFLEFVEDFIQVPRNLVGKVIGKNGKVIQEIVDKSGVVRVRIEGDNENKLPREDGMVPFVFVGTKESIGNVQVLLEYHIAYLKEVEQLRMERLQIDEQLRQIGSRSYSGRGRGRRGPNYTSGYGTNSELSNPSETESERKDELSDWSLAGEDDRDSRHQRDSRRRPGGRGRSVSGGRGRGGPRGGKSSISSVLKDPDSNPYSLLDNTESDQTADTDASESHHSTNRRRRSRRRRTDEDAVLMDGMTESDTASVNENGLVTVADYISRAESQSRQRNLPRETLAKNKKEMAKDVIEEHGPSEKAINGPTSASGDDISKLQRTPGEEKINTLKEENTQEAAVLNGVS
# Chain of HuR (GST-HuR) (Q15717 whole entry): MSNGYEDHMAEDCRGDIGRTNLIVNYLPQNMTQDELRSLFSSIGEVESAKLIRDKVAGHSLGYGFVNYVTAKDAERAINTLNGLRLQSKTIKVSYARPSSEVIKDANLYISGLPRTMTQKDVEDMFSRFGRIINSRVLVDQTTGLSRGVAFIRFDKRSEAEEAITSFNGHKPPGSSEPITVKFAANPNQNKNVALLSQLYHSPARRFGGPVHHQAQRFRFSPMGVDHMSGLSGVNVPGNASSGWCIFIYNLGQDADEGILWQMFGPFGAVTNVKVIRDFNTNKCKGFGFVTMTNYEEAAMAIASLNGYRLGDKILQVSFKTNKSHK
binder,measurement,setting,value
CUUGUGAUUAUUUAUUAUUUAUUUAUUAUUUAUUUAUUUACAGAGAUGAA (ssRNA) [TNFα 3'UTR 50-mer (probe A)],binding result,[1],binds
same,binding result,[2],binds
AUUUA (ssRNA) [AUUUA monomer],binding result,[3],no binding
AUUUAAUUUAAUUUAAUUUAAUUUA (ssRNA) [(AUUUA)5 (probe B)],binding result,[4],binds
UUAUUUAUUUUAUUUAUUUUAUUUAUU (ssRNA) [(UUAUUUAUU)3 (probe C)],binding result,[4],binds
